Laboratory results as given in the nanobody polyreactivity screen of Harvey et al. (2022).

Test: yeast display, Sf9 membrane polyspecificity reagent, FACS + sequencing; frameworks hold sequencing errors
How it was run: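 Galactose induction of a Saccharomyces cerevisiae BJ5465 synthetic nanobody display library ran 36–48 hours. The cells were then stained for 1 hour at 4 °C with 10% biotinylated, detergent-solubilized Sf9 membrane reagent, pulled down on streptavidin microbeads and FACS-sorted into low and high (top ~1%) gates on expression and reagent-binding fluorescence. Labels for polyreactivity follow the gate of origin.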

Sequence | polyreactivity (PSR sort gate)
QVQLVESGGGLVQAGGSLRLSCAASGSIFAPYAMGWYRQAPGTERELVAAITWSGDSTYYADSVKGRFTISRDNAKNTVYLQMNSLKPEDTAVYYCATEEVYGQGNYWGQGTQVTVSS | low polyreactivity
QVQLVESGGGLVQAGCSLRLSSAASGFTFGYYGMGWYRQAPGKERELVAAISQSSTDTYYADSVKGRFTISRDNAKNTVYLQMNSLKPEDTPVYYCAAHPTDSEYDDYEYWGQGTQVTVSS | low polyreactivity
QVQLVESGVCLVQAGRSLPLSCAASGFTFDSNAMGWSRQAPGNESELVAAISASRDSTYYADSVKGRFTISRDNAKNTVYLQMNSLKPEETAVYYCAADSSDWPYDYWGQCTQVTVSS | low polyreactivity
QVQLVESGGGLVQAGGSLRLSCAASGIIITYYTMGWYRQAPGKERELVAAIRWRGGSTYYADSVKGRFTISRDNAKNTVYLQMNSLKPEDTAVYYCNARSAFRSCGRDFLFDYWGQGTQVTGSS | high polyreactivity
QVQLVESGGGLVQAGGSLRLSSAASGIIFRVYTMGWYLQAPGKERELVAKISLGGARTYYADSVKGRFTISRDNAKNTVYLQMNSLKPEDTAVYYCNARSRWTAKFDYWGQGTQVTVSS | high polyreactivity
QVQLVESGGGLVQAGGSLRLSCAASGFIFDLYAMGWYRQAPGKERELVAAISPSGGSTYYADSVKGRFTISRDNAKNTVYLQMNSLKPEDTAVYYCNTGIRWAISKEYDYWGQGTQVTVSS | high polyreactivity
QVQLVESGGGLVQAGGSLRLSCAASGFIIARNTMGWYRQAPAKERELVAAISSSGGSTYYADSVKGRFTISRDNAKNTFYLQMNCLKPEDTAVYYCNKGYTGLYGYDYWGQGTHVTVSS | high polyreactivity
QVQHVESGGGLVQAGGSLRLSCAASGFIFTPYAMGWYRQAPGKEREFVASITWSGGSTNYADSVKGRFTISRDNAKNTVYLQMNSLKPEDTAVYYCNADTWSPNDYWGLGTQVTVSS | low polyreactivity
QVQLVESGGGLVKAGGSLRLSCAASGITFYIYDMGWYRQAPGKERELVATISWSDGRTYYADSVKGRFTISRDNAKNTVYLQMNSLKPEDTAVYYCASDWWYYQFDYEYWGQGTQVTVSS | low polyreactivity
QVQLVESGGGLVQAGGSLRLTCAASGIYFTDYAMGWYRQAPGKERELVAAISGIGSTTYYADSVKGRFTISRDNAKNTVYLQMNSLKPEDTAVYYCNALLAYTYWYDYWGQGTQVSVSS | high polyreactivity
QVQLVESGGGLDQAGGSLRLSCAASARIFAAYAMGWYRQAPGKEREFVAAITTAGSTHYADSVKGRFTISRDNAKYTVYLQMNSLKPEDTPVYYCAADGIARAYVLFDAYDFLYDYWGQGTQVTVSS | low polyreactivity
QVQLVESGGGLVQAGGSLRLSCAASGFIFGVNAMGWYRQAPGKERELVAAIRWRGGSTYYADSVKGRFTISRDNAKNTVYLQMNSLKPEDTAVYYCAAARFVGGSGYVRILYYWGQGTQVTVSS | high polyreactivity
QVQLVESGGGLVQAGGSLRLSCAASGSIFSRNAMGWYRQAPGKEREFVARISWSSTSTNYADSVKGRFTISRDNAKNPVYLQMNSLKPEDTAVYYCAADFRGDRRFDYWGQGTQVTVSS | low polyreactivity
QVQLVESGGGLDQAGVSLRLSSAASGSTFVRNAMGCYRQAPGKEREWVAAINIGGSTYYADSVKGRFTISRDNAKNTVYLQMNSLKPEDTAVYYFAARIKYRYDWGQGTQVTVSS | low polyreactivity
QVQLEESGGGLVQAGGSLRLSCAASGSTFESYAMGWYRQAPGKERELVATITRRSTRTYYADSVKGRFTISRDNAKNTVYLQMNSLKPEDTAVYYCAARVYTVRAIGMGYWGQGTQVTVSS | high polyreactivity
QVQLVESGGGLVQAGGSLRLSCAASGSTFWANAMGWYRQAPGKEREIVATISWSDGSTYYAASVKGRFTISRDNAKNTVYLQRNSLNPEDTAVYYCASDVVRFFTYKYDDWGQGTQVTVSS | low polyreactivity
QVQLVESGGGLVQAGGSLRLSCAASGSIFYGYDMGWYRQAPGKERELVATISWSSGSSTYYADSVKGRFTISRDNAKNTVYLQMNSLKPEDTAVYYCAVDFAIGYRYLGRVDYWGQGTQVTVSS | low polyreactivity
QVQLVESGGGLVQAGGSLRLSCAASGSIFKVYAMGWYRQAPGKERELVATISGSGGSTYYADSVKGRFTISRDNAKNTVYLQMNSLKPEDTAVYYCAAEVYVPDYFQHKFDVEYEYWGQGTQVTVSS | low polyreactivity
QVQLVESGGGLVQAGGSLRLSCAASGFTFPWYAMGWYRQAPGKERELVASISYRGDSTYYSDSVKGRFTISRDNAKNTVYLQMNSLKPEDTAVYYCADDYLWYNYAGQVDHDYDYWGQGTQVTVSS | low polyreactivity
QVQLVESGGGLVQAGGSLRLSCAASGFTFNANAMGWYRQAPGKERELVAVNTRSGGRTYYADSVKGRFTISRDNAKNTVYLQMNSLKPEDTAVYYCAKEGPSRVYQGTDSASDYWGQGTQVTVSS | high polyreactivity
QVQLVESGGGLVQAGGSLRLSCAASGLTFHRYAMGWYRQAPGKERELVAAINYSGGRTYYADSVKGRFTISRDNAKNTVYLQMNSLKPEDTAVYYCNKCYVYHPGSLEYGYWGQGTQVTVSS | high polyreactivity
QVQLVESGGGLVQAGGSLRLSCAASGSTFRRYAMGWYRQAPGKERELVATISSGGRTNYADSVKGRFTISRDNAKNTVYLQMNSLKPEDTAVYYCAARPYYYERSAGYYWGQGTQVTVSS | high polyreactivity

Sequence | polyreactivity (PSR sort gate)
QVQLVESGGGLVQAGGSLRLSSAASGSTFGYNAMGRYRPAPGKERELVAAISRSGGSTSNADSVMGRFTISRDNANNTVYLQMNSLKPEDTAVYYCAARYYKERYWGQGTQVTVSA | low polyreactivity
QVQLVESGGGLVQAGGSLRLSCAAPGSIFYQNAMGGYRQAPGKERELVAAISRSGGSTYYADSVKGRFTISRDNAKNTVYLQMNSLKPEDTAVYYCAARISRQRSYSRDYWGQGTQVTVSS | high polyreactivity
QVQLVESGGGLVQAGGSLRLSCAASGSTFKVNVMGCYRKAPVKERELVAAINQSVRGTYYADSVKGRFTISRDNAKNTVYLQMNSLKPEDTAVYYCAAKIIVLRYVLSQEQRRYNYWGQGTQVTVSS | low polyreactivity
QVQLVESGGGLVQAGGSLRLSCAASGRISSQYAMGWYRQAPGKERELVAAISTSGDRTYYADSVKGRFTISRDTAKNTVYLEMNSLKPEDTAVYYCAKDCPYTYGRDIYEYWGQGTQVTVSS | low polyreactivity
QVQLVESGGGLVQAGGSLRLSCAASGRTFHYYAMGWYRQAPGKERELVAAISVSGGSTYYADSVKGRFTISRDNAKNTVYLQMNSLKPEDTAVYYCAADDYLVEHDYWGQGTQVTVSS | low polyreactivity
QVQLVESGGGLVQAGGSLRISCAASGFTFSAYAMGWYRQAPGKERELVAAISGSGGRTYYADSVKGRFTISRDNAKNTVYLQMNSLKPEDTAVYYCATSTAGGRETVSQYRYYWGHGTQVTVSS | high polyreactivity
QVQLVESGGGLVQAGGSLRLSCAASGFISDVYAMGCYRQAPGKERELVAVITWRGSTYYAYSVKGRFTISRDNAKNTVYLQMNSLKPEDTAVYYCAAESQGDWAFDYWGQGTQVTVSS | low polyreactivity
QVQLVESCGGLVQAGGSLRLICAASGRTFYHNAMGWYRQAPGKERELVATINSGGSTYAESVKGRFTISRDNAKNTVYFQMNSLKPEDTAVYYCAATFWSRSRFYYRYDYWGQGTQVTVSS | high polyreactivity
QVQLVESGGGLVQAGGSLRLSCAASGRIFGKYMGWYRQAPGKERELVAAISRNGGRTYYADSVKGRFTISRDNAKNTVYLQMNCLNPEDTAVYYCAAASSRYDYWGQGTQVTVSS | high polyreactivity
QVQLVESGGGLVQAGGSLRLSCAASGFIFGVYAMGWYRQAPGKERELVASISVSGDDTYYADSVKGRFTISRDNAKNTVYLQMNSLKPEDTAVYYCAADYPGGIYYDDYLYDMDYWGQGTQVTVSS | low polyreactivity
QVHLVDTGGGLVQARGRLRLSCPASGYNFSYYAMASYRQAPGKERELVATIDWGGGSTYYADSVQGRFTISRDIAKNTVYLQLNSLKPEDTGVYYCAKDYYINNYGYRYVSWGKGTQVTVSS | low polyreactivity
QVQLVESGGRLLQAGGSLRLSCAASGSIFVGYAMGWYRQAPGKEWELVAAISASGGRTYYADSVKGRFTISRDNAKTTVYLQMNSLKPEDTAVYYCATDDYWGRGTQVTVSS | high polyreactivity
QVQLVESGGGLVQAGGSLRLSCDASGRILKYNAMGWYRQAPGKERELVAAISGSGGRTYYADSVKGRFTISRDNAKNTVYLQMNSLKPEDTAVYYCAASNASPGGFNYWGQGTQVTVSS | high polyreactivity
QVQLVESGGGLDQAGGSLRLSCAASGFISPWYAMGWYRPAPGKERELDAAIDWSGGSTYYADSVKGRFTISRDNAKNTVYIQMKSLKPEDTAVYYCAARYYTAAVRAGRVRMYSWGQGTQVTVSS | high polyreactivity
QVQLVESGRGLVQAGGSLRLSCAASGRTIKYYAMGWYRQAPGKDRELVAVISWSGGSTYYADSVKGRFTISRDNAKNTVYLQMNSLKPEDTAVYYCNAYVYAYYAGYNYWGQGTQLTVSS | high polyreactivity
QVQLVESGGGLVQAGGSLRLSCAASGSTFYRYAMAWYRPAPGKERELVAAITRGGGRTYYADSVKGRFTISRDNAKNTVYLQMNSLKPEDTAVYYCNSASPYYDSWGQGTQVTVSS | high polyreactivity
QVQLVESGGGLVQAGCSLRLSCAASGSIFDDYAMGWNRQAPGKERELVAAISSSGTSTYYADSVKGRFTISRDNAKNTVYLQMNSLKPEVTAVYYCAARSAILKSGYLMDYWGQGTHVTVSS | low polyreactivity
QVQLVESGGGLVQAGGSLRLSCAASGSIFRDNVMGWYRQAPGKERELVAAITQRGGSTYYADSVKGRFTISRDNAKNTVYVQMNSLKPEDTAVYYCNARRYVLRYNRFYYWGQGTEVTVSS | high polyreactivity
QVQLVESGGGLVQAGGSLRLSCAASGRTFRYYAMGWYRQAPGKERELVAAITRGGRTNYADSVKGRFTISRDNAKNTVYLQMNSLKPEDTAVYYCAAVLYTPNKYASYYWGQGTQVTVSS | high polyreactivity
QVQLVESGGGLVQAVGRLRLSCAASGGIFSINAMGWYRQAPGKERELVAAIRWNSGRTYYADSVKGRFTISRDNAKNTVYLQMNSLKPEDTAVYYCAVRDYISWEDYYWGQGTQVTVSS | high polyreactivity
QVHLVESGGGLVQAGGSLRLSCAASGRLLVLNDMGWYRPEPGKVMELVADITSGGSTYYADSVKGRFTISRDNAKKTDYLQMNSLKPEDPAVYYCAADWNTYPDYQQSYFVSYEYNYWGQGTQVTVSS | low polyreactivity
